Experimental findings from PMC7174510 are described below.

This test deals with Rac1 (African green monkey (endogenous in COS-1)).

B1: oncogenic Dbl (domain or fragment)
chain: HVLNELIQTERVYVRELYTVLLGYRAEMDNPEMFDLMPPLLRNKKDILFGNMAEIYEFHNDIFLSSLENCAHAPERVGPCFLERKDDFQMYAKYCQNKPRSETIWRKYSECAFFQECQRKLKHRLRLDSYLLKPVQRITKYQLLLKELLKYSKDCEGSALLKKALDAMLDLLKSVNDSMHQIAINGYIGNLNELGKMIMQGGFSVWIGHKKGATKMKDLARFKPMQRHLFLYEKAIVFCKRRVESGEGSDRYPSYSFKHCWKMDEVGITEYVKGDNRKFEIWYGEKEEVYIVQASNVDVKMTWLKEIRNILLKQQELLTVKKRKQQDQLTERDKFQISLQQNDEKQQGAFISTEETELEHTSTVVEVCEAIASVQAEANTVWTEASQSAEISEEPAEWSSNYFYPTYDENEEENRPLMRPVSEMALLY
With B1, the percent inhibition by 1A-116 (50 uM, 24 h) of the SRE-luciferase activity elicited by the activated GEF in COS-1 cells turned out to be 60%.

B2: Tiam1 C1199 (aa 391-1590) (domain or fragment)
chain: LEMSTTNSESLEEAGSAHSDEQSSGTLSSPGQSDILLTAAQGTVRKAGALAVKNFLVHKKNKKVESATRRKWKHYWVSLKGCTLFFYETDGRSGIDHNSVPKHAVWVENSIVQAVPEHPKKDFVFCLSNSLGDAFLFQTTSQTELENWITAIHSACAAAVARHHHKEDTLRLLKSEIKKLEQKIDMDEKMKKMGEMQLSSVTDSKKKKTILDQIFVWEQNLEQFQMDLFRFRCYLASLQGGELPNPKRLLAFASRPTKVAMGRLGIFSVSSFHALVAARTGEIGVRRRTQAMSRSASKRRSRFSSLWGLDTTSKKKQGRPTINQVFGEGTDAVKRSLEGIFDDTVPDGKREKEVVLPSVHQHNPDCDIWVHEYFTPSWFCLPNNQPALTVVRPGDTARDTLELICKTHQLDHSAHYLRLKFLMENRVQFYIPQPEEDIYELLYKEIEICPKVTQNIHIEKSDAAADNYGFLLSSVDEDGIRRLYVNSVKETGLASKKGLKAGDEILEINNRAAGTLNSSMLKDFLSQPSLGLLVRTYPEPEGGVELLENPPHRVDGPVDLGESPLAFLTSNPGHSLSSEQGSSAETAPEEGEGPDLESSDETDHSSKSTEQVAAFCRSLHEMSPSDSSPSPQDATSPQLATTRQLSDADKLRKVICELLETERTYVKDLNCLMERYLKPLQKETFLTQDELDVLFGNLTEMVEFQVEFLKTLEDGVRLVPDLEKLEKVDQFKKVLFSLGGSFLYYADRFKLYSAFCASHTKVPKVLVKAKTDTAFKAFLDAQNPRQQHSSTLESYLIKPIQRVLKYPLLLRELFALTDAESEEHYHLDVAIKTMNKVASHINEMQKIHEEFGAVFDQLIAEQTGEKKEVADLSMGDLLLHTSVIWLNPPASLGKWKKEPELAAFVFKTAVVLVYKDGSKQKKKLVGSHRLSIYEEWDPFRFRHMIPTEALQVRALPSADAEANAVCEIVHVKSESEGRPERVFHLCCSSPESRKDFLKSVHSILRDKHRRQLLKTESLPSAQQYVPFGGKRLCALKGARPAMSRAVSAPSKSLGRRRRRLARNRFTIDSDAISASSPEKEPQQPAGGGDTDRWVEEQFDLAQYEEQDDIKETDILSDDDEFCESLKGASVDRDLQEQLQAASISQRARGRRTLDSHASRMTQLKKQAALSGINGGLESASEEVIWVRREDFAPSRKLNTE
Turning to B2, the percent inhibition by 1A-116 (50 uM, 24 h) of the SRE-luciferase activity elicited by the activated GEF in COS-1 cells came to 75%.
